# Measured values: US20110091994A1, “Methods for Screening Compounds for Treating and/or Preventing an Hepatitis C Virus Infection” (priority 2008, published 2011)
# What was measured:
# [1] = tested on: HCV ORFs (Gal4-DB fusions); type: binding, HCV genotype 1b, isolate con1; details: human protein listed by gene symbol; the value names the HCV protein it interacts with
# [2] = biological target: T1, HCV ORFs (Gal4-DB fusions) (Hepatitis C virus genotype 1b, UniProt Q9WMX2); type: binding, HCV genotype 1b, isolate con1; details: HCV protein NS3 as bait; human protein as prey
# T1 construct: expressed in transfected cells; host or cells: Saccharomyces cerevisiae MAV203 (IMAP1) / AH109 (IMAP2)
# T1 sequence (Q9WMX2 1027-1657): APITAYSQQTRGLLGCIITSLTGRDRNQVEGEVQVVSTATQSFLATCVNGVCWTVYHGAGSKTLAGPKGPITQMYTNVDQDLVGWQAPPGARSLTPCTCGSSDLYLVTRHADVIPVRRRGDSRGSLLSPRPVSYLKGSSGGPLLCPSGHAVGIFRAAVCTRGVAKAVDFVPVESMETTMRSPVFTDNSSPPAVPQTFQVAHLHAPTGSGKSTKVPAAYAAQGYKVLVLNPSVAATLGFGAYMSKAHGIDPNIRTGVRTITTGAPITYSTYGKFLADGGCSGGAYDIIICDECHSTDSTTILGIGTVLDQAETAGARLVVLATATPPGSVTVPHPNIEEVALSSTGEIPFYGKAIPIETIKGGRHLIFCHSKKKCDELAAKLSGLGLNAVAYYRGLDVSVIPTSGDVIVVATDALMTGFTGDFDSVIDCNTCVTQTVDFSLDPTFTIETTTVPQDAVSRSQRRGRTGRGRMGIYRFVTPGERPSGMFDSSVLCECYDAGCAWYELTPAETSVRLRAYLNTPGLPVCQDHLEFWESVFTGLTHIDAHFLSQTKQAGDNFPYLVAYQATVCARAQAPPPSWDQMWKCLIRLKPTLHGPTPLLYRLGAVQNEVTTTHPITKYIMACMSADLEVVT
# 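Further: yeast two-hybrid screens using HCV genotype 1b proteins fused to Gal4-DB as baits against prey cDNA libraries from human spleen and foetal brain, IMAP1 via transformation and IMAP2 via mating.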
Molecule,Interaction with viral protein [1],IMAP Y2H IMAP2 (number of IST) [2]
"SYNPO2 (protein, UniProt Q9UMS6 1-1093, looked up) Synaptopodin-2: MGTGDFICISMTGGAPWGFRLQGGKEQKQPLQVAKIRNQSKASGSGLCEGDEVVSINGNPCADLTYPEVIKLMESITDSLQMLIKRPSSGISEALISENENKNLEHLTHGGYVESTTLQIRPATKTQCTEFFLAPVKTEVPLAENQRSGPDCAGSLKEETGPSYQRAPQMPDSQRGRVAEELILREKVEAVQPGPVVELQLSLSQERHKGASGPLVALPGAEKSKSPDPDPNLSHDRIVHINSIPTNEKADPFLRSSKIIQISSGRELRVIQESEAGDAGLPRVEVILDCSDRQKTEGCRLQAGKECVDSPVEGGQSEAPPSLVSFAVSSEGTEQGEDPRSEKDHSRPHKHRARHARLRRSESLSEKQVKEAKSKCKSIALLLTDAPNPNSKGVLMFKKRRRRARKYTLVSYGTGELEREADEEEEGDKEDTCEVAFLGASESEVDEELLSDVDDNTQVVNFDWDSGLVDIEKKLNRGDKMEMLPDTTGKGALMFAKRRERMDQITAQKEEDKVGGTPSREQDAAQTDGLRTTTSYQRKEEESVRTQSSVSKSYIEVSHGLGHVPQQNGFSGTSETANIQRMVPMNRTAKPFPGSVNQPATPFSPTRNMTSPIADFPAPPPYSAVTPPPDAFSRGVSSPIAGPAQPPPWPQPAPWSQPAFYDSSERIASRDERISVPAKRTGILQEAKRRSTTKPMFTFKEPKVSPNPELLSLLQNSEGKRGTGAGGDSGPEEDYLSLGAEACNFMQSSSAKQKTPPPVAPKPAVKSSSSQPVTPVSPVWSPGVAPTQPPAFPTSNPSKGTVVSSIKIAQPSYPPARPASTLNVAGPFKGPQAAVASQNYTPKPTVSTPTVNAVQPGAVGPSNELPGMSGRGAQLFAKRQSRMEKYVVDSDTVQAHAARAQSPTPSLPASWKYSSNVRAPPPVAYNPIHSPSYPLAALKSQPSAAQPSKMGKKKGKKPLNALDVMKHQPYQLNASLFTFQPPDAKDGLPQKSSVKVNSALAMKQALPPRPVNAASPTNVQASSVYSVPAYTSPPSFFAEASSPVSASPVPVGIPTSPKQESASSSYFVAPRPKFSAKKSGVTIQVWKPSVVEE",NS3,1
"TBXAS1 (protein, UniProt P24557 1-533, looked up) Thromboxane-A synthase: MEALGFLKLEVNGPMVTVALSVALLALLKWYSTSAFSRLEKLGLRHPKPSPFIGNLTFFRQGFWESQMELRKLYGPLCGYYLGRRMFIVISEPDMIKQVLVENFSNFTNRMASGLEFKSVADSVLFLRDKRWEEVRGALMSAFSPEKLNEMVPLISQACDLLLAHLKRYAESGDAFDIQRCYCNYTTDVVASVAFGTPVDSWQAPEDPFVKHCKRFFEFCIPRPILVLLLSFPSIMVPLARILPNKNRDELNGFFNKLIRNVIALRDQQAAEERRRDFLQMVLDARHSASPMGVQDFDIVRDVFSSTGCKPNPSRQHQPSPMARPLTVDEIVGQAFIFLIAGYEIITNTLSFATYLLATNPDCQEKLLREVDVFKEKHMAPEFCSLEEGLPYLDMVIAETLRMYPPAFRFTREAAQDCEVLGQRIPAGAVLEMAVGALHHDPEHWPSPETFNPERFTAEARQQHRPFTYLPFGAGPRSCLGVRLGLLEVKLTLLHVLHKFRFQACPETQVPLQLESKSALGPKNGVYIKIVSR",NS3,1
